Target: NCoR peptide (Homo sapiens, UniProt O75376)
Assay: fluorescence polarization

NCoR peptide, sequence (O75376 whole entry): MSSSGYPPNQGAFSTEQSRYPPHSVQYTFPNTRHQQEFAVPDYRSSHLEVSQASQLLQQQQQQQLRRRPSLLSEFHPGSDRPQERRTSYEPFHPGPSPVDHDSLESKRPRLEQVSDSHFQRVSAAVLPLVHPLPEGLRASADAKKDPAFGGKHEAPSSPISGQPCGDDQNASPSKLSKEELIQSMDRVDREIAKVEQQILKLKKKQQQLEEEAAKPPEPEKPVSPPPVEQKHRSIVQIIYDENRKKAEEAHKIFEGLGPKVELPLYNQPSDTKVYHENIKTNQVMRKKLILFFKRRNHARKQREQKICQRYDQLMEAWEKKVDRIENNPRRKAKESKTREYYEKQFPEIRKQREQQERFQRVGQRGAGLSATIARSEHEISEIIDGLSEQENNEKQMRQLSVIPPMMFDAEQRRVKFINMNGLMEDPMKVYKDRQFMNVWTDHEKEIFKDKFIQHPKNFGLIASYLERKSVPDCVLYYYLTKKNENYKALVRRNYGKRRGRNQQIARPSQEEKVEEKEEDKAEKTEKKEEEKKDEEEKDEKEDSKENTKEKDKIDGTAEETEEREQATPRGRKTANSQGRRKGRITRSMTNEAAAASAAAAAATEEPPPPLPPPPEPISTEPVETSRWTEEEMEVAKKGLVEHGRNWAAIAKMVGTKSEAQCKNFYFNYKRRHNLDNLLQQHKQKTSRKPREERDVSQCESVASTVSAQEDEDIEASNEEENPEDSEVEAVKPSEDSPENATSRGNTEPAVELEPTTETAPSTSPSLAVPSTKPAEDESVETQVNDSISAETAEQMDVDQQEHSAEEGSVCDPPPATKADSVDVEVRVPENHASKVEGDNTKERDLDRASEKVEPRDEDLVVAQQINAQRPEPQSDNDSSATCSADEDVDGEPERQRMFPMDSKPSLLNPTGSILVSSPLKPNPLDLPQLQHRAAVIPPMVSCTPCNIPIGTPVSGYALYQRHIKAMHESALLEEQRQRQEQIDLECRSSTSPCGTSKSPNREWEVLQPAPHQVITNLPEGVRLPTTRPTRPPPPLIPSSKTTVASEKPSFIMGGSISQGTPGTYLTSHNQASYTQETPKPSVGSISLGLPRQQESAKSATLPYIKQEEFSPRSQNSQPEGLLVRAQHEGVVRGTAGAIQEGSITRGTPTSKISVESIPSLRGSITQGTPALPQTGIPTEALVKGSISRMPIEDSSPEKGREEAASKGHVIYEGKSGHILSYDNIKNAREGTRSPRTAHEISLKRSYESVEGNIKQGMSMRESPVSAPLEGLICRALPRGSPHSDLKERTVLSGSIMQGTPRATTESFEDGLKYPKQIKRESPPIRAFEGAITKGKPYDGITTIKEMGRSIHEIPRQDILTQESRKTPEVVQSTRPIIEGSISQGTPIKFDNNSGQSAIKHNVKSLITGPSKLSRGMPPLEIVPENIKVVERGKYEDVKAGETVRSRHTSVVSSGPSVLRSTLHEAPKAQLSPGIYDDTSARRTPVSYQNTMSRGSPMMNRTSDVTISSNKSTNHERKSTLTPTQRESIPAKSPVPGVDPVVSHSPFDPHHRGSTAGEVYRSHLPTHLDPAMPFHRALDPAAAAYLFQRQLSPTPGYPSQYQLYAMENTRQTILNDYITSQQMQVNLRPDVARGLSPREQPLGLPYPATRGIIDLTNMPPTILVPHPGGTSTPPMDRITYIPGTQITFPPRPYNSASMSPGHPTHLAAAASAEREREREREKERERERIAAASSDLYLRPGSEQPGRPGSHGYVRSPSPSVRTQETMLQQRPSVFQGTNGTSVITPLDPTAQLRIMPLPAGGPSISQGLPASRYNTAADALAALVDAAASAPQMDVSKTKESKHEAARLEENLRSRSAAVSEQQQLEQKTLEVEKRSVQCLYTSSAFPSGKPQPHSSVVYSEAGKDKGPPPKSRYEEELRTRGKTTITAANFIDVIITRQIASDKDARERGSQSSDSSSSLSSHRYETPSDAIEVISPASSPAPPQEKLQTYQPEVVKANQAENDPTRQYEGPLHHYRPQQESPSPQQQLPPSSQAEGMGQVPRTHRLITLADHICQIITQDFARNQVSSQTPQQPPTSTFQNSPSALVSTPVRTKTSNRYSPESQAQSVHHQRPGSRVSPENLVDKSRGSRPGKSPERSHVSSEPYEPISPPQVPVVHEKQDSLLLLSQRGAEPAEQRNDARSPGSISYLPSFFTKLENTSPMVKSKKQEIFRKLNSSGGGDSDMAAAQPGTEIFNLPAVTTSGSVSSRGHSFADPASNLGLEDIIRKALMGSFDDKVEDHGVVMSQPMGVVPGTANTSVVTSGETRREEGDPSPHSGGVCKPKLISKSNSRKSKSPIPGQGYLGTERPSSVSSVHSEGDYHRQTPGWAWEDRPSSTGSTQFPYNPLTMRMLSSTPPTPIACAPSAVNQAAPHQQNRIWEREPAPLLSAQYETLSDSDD

B1: PPARγ LBD LBD (protein)
chain: DLRALAKHLYDSYIKSFPLTKAKARAILTGKTTDKSPFVIYDMNSLMMGEDKIKFKHITPLQEQSKEVAIRIFQGCQFRSVEAVQEITEYAKSIPGFVNLDLNDQVTLLKYGVHEIIYTMLASLMNKDGVLISEGQGFMTREFLKSLRKPFGDFMEPKFEFAVKFNALELDDSDLAIFIAVIILSGDRPGLLNVKPIEDIQDNLLQALELQLKLNHPESSQLFAKLLQKMTDLRQIVTEHVQLLQVIKKTETDMSLHPLLQEIYKD
- Kd: 1400 nM
